We go through three molecules from publication PMC10163214, “E. coli allantoinase is activated by the downstream metabolic enzyme, glycerate kinase, and stabilizes the putative allantoin transporter by direct binding” (Scientific Reports, 2023).

One series addresses T1, AllW (YbbW) (Escherichia coli, UniProt P75712).
T1 construct: native chromosomal AllW in delta-allC cells, stabilised by AllB; compared with allW and allB deletion strains; with Allantoinase
Briefly: cellular allantoin uptake by GC-MS. Type of series: cell-based. The note with it: 1 mM allantoin, PBS with glucose, delta-allC cells; uptake lost in allW or allB deletion.

The target of series [1] is T2, AllB (allantoinase; AllB_Zn, AllB_Mn) (Escherichia coli, UniProt P77671).
T2 construct: full length; expressed in E. coli; tetrameric
T2 sequence (P77671 1-453): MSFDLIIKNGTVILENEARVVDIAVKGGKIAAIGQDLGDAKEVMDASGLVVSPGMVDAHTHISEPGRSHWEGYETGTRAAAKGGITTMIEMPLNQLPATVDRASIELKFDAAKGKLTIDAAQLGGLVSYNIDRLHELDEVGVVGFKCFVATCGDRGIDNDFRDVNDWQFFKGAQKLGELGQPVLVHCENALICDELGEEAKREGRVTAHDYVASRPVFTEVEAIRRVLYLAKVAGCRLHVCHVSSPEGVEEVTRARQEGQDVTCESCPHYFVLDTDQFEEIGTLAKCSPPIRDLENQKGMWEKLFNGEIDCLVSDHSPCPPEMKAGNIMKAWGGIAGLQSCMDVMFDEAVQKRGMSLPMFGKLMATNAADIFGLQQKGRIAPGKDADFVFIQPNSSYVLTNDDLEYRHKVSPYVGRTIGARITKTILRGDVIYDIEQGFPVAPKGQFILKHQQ
Briefly: absorbance of allantoate at […] nm. Format: biochemical. As to conditions: 0.1 mM ZnSO4, no GlxK, no glyoxylate, pH 8.0.

Substrate in series [2]: O=C(O)[C@H](O)CO
As to the kind of experiment: purified protein. Format: biochemical, Escherichia coli. As to conditions: 10 mM MgSO4, 1.2 mM ATP, pH 7.4, 37 °C.

Substrate in series [3]: NC(=O)NC1NC(=O)NC1=O
Briefly: purified protein. Format: biochemical, Escherichia coli. The note with it: AllB_Mn, 0.2 mM MnSO4, no GlxK, 0.9 mM glyoxylate present, pH 8.0, 37 °C.

T1 sequence (P75712 whole entry): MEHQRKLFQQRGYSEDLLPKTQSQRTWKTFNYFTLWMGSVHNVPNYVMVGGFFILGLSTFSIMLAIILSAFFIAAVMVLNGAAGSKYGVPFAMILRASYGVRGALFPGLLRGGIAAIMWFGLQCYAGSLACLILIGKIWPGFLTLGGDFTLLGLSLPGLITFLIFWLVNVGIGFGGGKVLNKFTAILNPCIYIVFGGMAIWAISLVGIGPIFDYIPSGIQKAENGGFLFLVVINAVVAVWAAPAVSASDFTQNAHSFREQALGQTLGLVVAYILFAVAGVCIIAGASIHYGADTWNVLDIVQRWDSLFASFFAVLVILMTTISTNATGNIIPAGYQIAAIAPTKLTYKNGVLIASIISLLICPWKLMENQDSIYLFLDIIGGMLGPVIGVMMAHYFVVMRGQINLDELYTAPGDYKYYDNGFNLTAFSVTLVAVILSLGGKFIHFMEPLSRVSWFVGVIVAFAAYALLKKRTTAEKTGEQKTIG

A word on the Km: it is the substrate concentration at which the rate is half of its maximum. Turning to `NC(=O)NC1NC(=O)NC1=O` (stereo not drawn) [allantoin], the “cellular allantoin uptake by GC-MS” value on AllW (YbbW) is “no allantoin uptake was detected in either the AW12 (ΔallC–ΔallB) or the AW13 (ΔallC–ΔallW) mutant”. The Km in series [1] was > 15 mM.

B1: GlxK (glycerate 2-kinase) (Escherichia coli K-12) (protein)
chain: MKIVIAPDSFKESLSAEKCCQAIKAGFSTLFPDANYICLPIADGGEGTVDAMVAATGGNIVTLEVCGPMGEKVNAFYGLTGDGKTAVIEMAAASGLMLVAPEKRNPLLASSFGTGELIRHALDNDIRHIILGIGGSATVDGGMGMAQALGVRFLDADGQALAANGGNLARVASIEMDECDPRLANCHIEVACDVDNPLVGARGAAAVFGPQKGATPEMVEELEQGLQNYARVLQQQTEINVCQMAGGGAAGGMGIAAAVFLNADIKPGIEIVLNAVNLAQAVQGAALVITGEGRIDSQTAGGKAPLGVASVAKQFNVPVIGIAGVLGDGVEVVHQYGIDAVFSILPRLAPLAEVLASGETNLFNSARNIACAIKIGQGIKN
notes: full length, N-terminal His6 tag, expressed in E. coli; GlxK-His 41 kDa
Turning to B1, in the series “purified protein [2]”, the Km came to 0.085 ± 0.009 mM and the Vmax is reported as 4.6 ± 0.3 U/mg protein.

B2: AllB (allantoinase; AllB_Zn, AllB_Mn) (Escherichia coli K-12) (protein)
chain: T2 sequence (P77671 1-453)
notes: full length; expressed in E. coli; tetrameric
Regarding B2, in “purified protein [3]”, the Km is given as 5.8 ± 1.2 mM and the Vmax was 246 ± 32 U/mg protein.
